According to patent publication EP3583122A1 (dated 2019):

T1: SUDV GP on rVSV particles (Sudan virus (SUDV), UniProt Q66814 33-676)
T1 sequence: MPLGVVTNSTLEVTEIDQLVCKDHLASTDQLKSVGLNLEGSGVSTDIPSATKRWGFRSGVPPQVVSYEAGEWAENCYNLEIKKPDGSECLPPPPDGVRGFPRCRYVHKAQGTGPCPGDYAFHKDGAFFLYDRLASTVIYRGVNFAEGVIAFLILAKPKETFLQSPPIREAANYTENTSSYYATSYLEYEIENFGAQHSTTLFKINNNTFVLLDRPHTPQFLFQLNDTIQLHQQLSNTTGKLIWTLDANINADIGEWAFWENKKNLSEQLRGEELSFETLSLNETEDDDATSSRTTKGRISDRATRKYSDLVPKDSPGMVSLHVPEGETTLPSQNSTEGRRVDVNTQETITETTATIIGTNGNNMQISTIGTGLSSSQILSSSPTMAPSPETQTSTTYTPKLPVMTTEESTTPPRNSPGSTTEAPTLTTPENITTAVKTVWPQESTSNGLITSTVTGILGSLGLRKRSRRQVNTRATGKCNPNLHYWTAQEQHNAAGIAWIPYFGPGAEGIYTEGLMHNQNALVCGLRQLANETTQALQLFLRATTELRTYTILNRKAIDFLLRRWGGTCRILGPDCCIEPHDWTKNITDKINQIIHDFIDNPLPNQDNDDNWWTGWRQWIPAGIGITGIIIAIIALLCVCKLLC

T2: TAFV GP on VSV pseudotype particles (Tai Forest virus (TAFV), UniProt Q66810 33-676)
T2 sequence: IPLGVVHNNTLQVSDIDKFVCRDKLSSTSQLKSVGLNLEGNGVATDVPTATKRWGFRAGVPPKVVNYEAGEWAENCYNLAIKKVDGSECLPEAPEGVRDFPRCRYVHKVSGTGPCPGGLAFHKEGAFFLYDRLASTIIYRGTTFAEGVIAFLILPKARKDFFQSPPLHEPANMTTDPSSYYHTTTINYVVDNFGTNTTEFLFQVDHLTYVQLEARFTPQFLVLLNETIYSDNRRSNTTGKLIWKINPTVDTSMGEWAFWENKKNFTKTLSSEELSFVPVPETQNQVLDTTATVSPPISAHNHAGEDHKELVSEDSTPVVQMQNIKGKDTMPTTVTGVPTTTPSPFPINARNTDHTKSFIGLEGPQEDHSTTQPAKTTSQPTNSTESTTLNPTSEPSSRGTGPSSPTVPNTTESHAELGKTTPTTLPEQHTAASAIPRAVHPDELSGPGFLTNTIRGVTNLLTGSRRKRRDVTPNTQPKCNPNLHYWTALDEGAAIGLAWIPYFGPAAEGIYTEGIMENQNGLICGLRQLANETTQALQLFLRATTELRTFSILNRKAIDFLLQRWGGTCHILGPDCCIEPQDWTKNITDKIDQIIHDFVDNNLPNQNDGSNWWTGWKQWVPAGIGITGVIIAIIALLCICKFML

T3: RESTV GP on rVSV particles (Reston virus (RESTV), UniProt Q66799 34-677)
T3 sequence: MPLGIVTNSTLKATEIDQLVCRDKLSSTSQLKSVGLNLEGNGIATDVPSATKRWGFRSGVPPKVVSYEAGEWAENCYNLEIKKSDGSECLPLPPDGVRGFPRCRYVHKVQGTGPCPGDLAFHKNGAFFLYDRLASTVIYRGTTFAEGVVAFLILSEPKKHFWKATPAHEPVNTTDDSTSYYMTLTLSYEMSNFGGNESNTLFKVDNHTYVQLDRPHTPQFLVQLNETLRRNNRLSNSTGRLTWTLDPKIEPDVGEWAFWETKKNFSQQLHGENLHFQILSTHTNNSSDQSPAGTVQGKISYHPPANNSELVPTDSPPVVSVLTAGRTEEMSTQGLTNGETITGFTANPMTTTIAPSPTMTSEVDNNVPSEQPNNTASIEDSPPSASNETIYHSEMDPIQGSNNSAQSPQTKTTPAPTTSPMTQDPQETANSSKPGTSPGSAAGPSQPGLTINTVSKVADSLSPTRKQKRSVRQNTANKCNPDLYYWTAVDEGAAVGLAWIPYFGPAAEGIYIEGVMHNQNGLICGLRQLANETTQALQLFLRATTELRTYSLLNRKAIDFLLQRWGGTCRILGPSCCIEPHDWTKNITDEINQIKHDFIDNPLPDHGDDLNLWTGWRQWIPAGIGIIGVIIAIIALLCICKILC

T4: EBOV GP on rVSV particles (Ebola virus (EBOV), UniProt Q05320 33-676)
T4 sequence: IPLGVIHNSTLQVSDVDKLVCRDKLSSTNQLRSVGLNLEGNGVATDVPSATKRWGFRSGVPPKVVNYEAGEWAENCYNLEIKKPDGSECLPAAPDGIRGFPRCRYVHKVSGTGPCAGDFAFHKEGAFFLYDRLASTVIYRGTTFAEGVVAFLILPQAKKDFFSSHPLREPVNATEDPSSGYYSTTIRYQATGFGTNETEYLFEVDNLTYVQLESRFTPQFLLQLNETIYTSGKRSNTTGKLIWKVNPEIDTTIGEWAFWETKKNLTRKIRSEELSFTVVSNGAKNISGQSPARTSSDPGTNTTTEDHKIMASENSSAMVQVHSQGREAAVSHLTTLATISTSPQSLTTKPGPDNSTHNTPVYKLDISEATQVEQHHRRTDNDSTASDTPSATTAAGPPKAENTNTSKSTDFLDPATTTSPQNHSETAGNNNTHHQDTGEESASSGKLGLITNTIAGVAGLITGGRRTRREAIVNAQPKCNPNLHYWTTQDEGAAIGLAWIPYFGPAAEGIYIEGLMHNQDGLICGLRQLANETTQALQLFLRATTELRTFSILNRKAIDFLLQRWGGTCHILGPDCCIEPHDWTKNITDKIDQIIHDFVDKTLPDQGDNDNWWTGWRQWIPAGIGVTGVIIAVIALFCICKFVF


How the values were obtained:
Assay in all cases: cell-based or functional assay
[1] = target: T1, SUDV GP on rVSV particles
[2] = target: T2, TAFV GP on VSV pseudotype particles
[3] = target: T3, RESTV GP on rVSV particles
[4] = target: BDBV GP on rVSV particles (Bundibugyo virus (BDBV))
[5] = target: T4, EBOV GP on rVSV particles

Row | Binder | IC50, half-maximal neutralization of viral infectivity (rVSV-GP) [1] | IC50, half-maximal neutralization of viral infectivity (rVSV-GP) [2] | IC50, half-maximal neutralization of viral infectivity (rVSV-GP) [3] | IC50, half-maximal neutralization of viral infectivity (rVSV-GP) [4] | IC50, half-maximal neutralization of viral infectivity (rVSV-GP) [5]
1 | PE-87 H100A (antibody, V domains shown) VH: QVQLVQSGVTLVQPGGSLRVSCAASGFTFSSYAMSWVRQAPGKGLEWVSAISGLGGSTYYADSVKGRFTISRDNSKNTLYLQMNSLRAEDTAVYYCAKDARVWAAGYHFDYWGQGALVTVSS VL: DIVLTQSPSTLSASVGDRVTITCRASQSISSWLAWYQQKPGEAPKLLISDASSLESGVPSRFSGSGSGTEFTLTISSLQPDDFATYYCQQYYSSPTFGGGTKVEIK | 1 nM | 0.8 nM | 0.2 nM | 0.4 nM | 1 nM
2 | PE-87 R101A (antibody, V domains shown) VH: QVQLVQSGVTLVQPGGSLRVSCAASGFTFSSYAMSWVRQAPGKGLEWVSAISGLGGSTYYADSVKGRFTISRDNSKNTLYLQMNSLRAEDTAVYYCAKDHAVWAAGYHFDYWGQGALVTVSS VL: DIVLTQSPSTLSASVGDRVTITCRASQSISSWLAWYQQKPGEAPKLLISDASSLESGVPSRFSGSGSGTEFTLTISSLQPDDFATYYCQQYYSSPTFGGGTKVEIK | 1.5 nM | 1.9 nM | 0.2 nM | 0.4 nM | 3.2 nM
3 | PE-87 F109A (antibody, V domains shown) VH: QVQLVQSGVTLVQPGGSLRVSCAASGFTFSSYAMSWVRQAPGKGLEWVSAISGLGGSTYYADSVKGRFTISRDNSKNTLYLQMNSLRAEDTAVYYCAKDHRVWAAGYHADYWGQGALVTVSS VL: DIVLTQSPSTLSASVGDRVTITCRASQSISSWLAWYQQKPGEAPKLLISDASSLESGVPSRFSGSGSGTEFTLTISSLQPDDFATYYCQQYYSSPTFGGGTKVEIK | 2.1 nM | 2.8 nM | 0.4 nM | 0.3 nM | 4.2 nM
4 | PE-87 W103A (antibody, V domains shown) VH: QVQLVQSGVTLVQPGGSLRVSCAASGFTFSSYAMSWVRQAPGKGLEWVSAISGLGGSTYYADSVKGRFTISRDNSKNTLYLQMNSLRAEDTAVYYCAKDHRVAAAGYHFDYWGQGALVTVSS VL: DIVLTQSPSTLSASVGDRVTITCRASQSISSWLAWYQQKPGEAPKLLISDASSLESGVPSRFSGSGSGTEFTLTISSLQPDDFATYYCQQYYSSPTFGGGTKVEIK | – | > 150 nM | – | > 200 nM | –
5 | PE-87 G106A (antibody, V domains shown) VH: QVQLVQSGVTLVQPGGSLRVSCAASGFTFSSYAMSWVRQAPGKGLEWVSAISGLGGSTYYADSVKGRFTISRDNSKNTLYLQMNSLRAEDTAVYYCAKDHRVWAAAYHFDYWGQGALVTVSS VL: DIVLTQSPSTLSASVGDRVTITCRASQSISSWLAWYQQKPGEAPKLLISDASSLESGVPSRFSGSGSGTEFTLTISSLQPDDFATYYCQQYYSSPTFGGGTKVEIK | 0.9 nM | 0.8 nM | 0.2 nM | 0.4 nM | 0.8 nM
6 | PE-87 V102A (antibody, V domains shown) VH: QVQLVQSGVTLVQPGGSLRVSCAASGFTFSSYAMSWVRQAPGKGLEWVSAISGLGGSTYYADSVKGRFTISRDNSKNTLYLQMNSLRAEDTAVYYCAKDHRAWAAGYHFDYWGQGALVTVSS VL: DIVLTQSPSTLSASVGDRVTITCRASQSISSWLAWYQQKPGEAPKLLISDASSLESGVPSRFSGSGSGTEFTLTISSLQPDDFATYYCQQYYSSPTFGGGTKVEIK | 1.1 nM | 1 nM | 0.2 nM | 0.2 nM | 0.6 nM
7 | PE-87 D99A (antibody, V domains shown) VH: QVQLVQSGVTLVQPGGSLRVSCAASGFTFSSYAMSWVRQAPGKGLEWVSAISGLGGSTYYADSVKGRFTISRDNSKNTLYLQMNSLRAEDTAVYYCAKAHRVWAAGYHFDYWGQGALVTVSS VL: DIVLTQSPSTLSASVGDRVTITCRASQSISSWLAWYQQKPGEAPKLLISDASSLESGVPSRFSGSGSGTEFTLTISSLQPDDFATYYCQQYYSSPTFGGGTKVEIK | – | > 350 nM | – | – | > 500 nM
8 | PE-87 H108A (antibody, V domains shown) VH: QVQLVQSGVTLVQPGGSLRVSCAASGFTFSSYAMSWVRQAPGKGLEWVSAISGLGGSTYYADSVKGRFTISRDNSKNTLYLQMNSLRAEDTAVYYCAKDHRVWAAGYAFDYWGQGALVTVSS VL: DIVLTQSPSTLSASVGDRVTITCRASQSISSWLAWYQQKPGEAPKLLISDASSLESGVPSRFSGSGSGTEFTLTISSLQPDDFATYYCQQYYSSPTFGGGTKVEIK | 2.1 nM | 2.2 nM | 0.5 nM | 0.6 nM | 3.2 nM
9 | PE-87 Y107A (antibody, V domains shown) VH: QVQLVQSGVTLVQPGGSLRVSCAASGFTFSSYAMSWVRQAPGKGLEWVSAISGLGGSTYYADSVKGRFTISRDNSKNTLYLQMNSLRAEDTAVYYCAKDHRVWAAGAHFDYWGQGALVTVSS VL: DIVLTQSPSTLSASVGDRVTITCRASQSISSWLAWYQQKPGEAPKLLISDASSLESGVPSRFSGSGSGTEFTLTISSLQPDDFATYYCQQYYSSPTFGGGTKVEIK | > 350 nM | 0.8 nM | 1.3 nM | 0.8 nM | 3 nM
